Test results reported in article PMC7954794, “Protein context shapes the specificity of SH3 domain-mediated interactions in vivo” (Nature Communications, 2021).

System: Abp1 PPIs
Experiment: DHFR-PCA of Abp1 SH3-swapped baits (Fig. 2B-D, S2C, S2F);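 for Protein-protein interaction distance between Abp1 SH3-swapped baits, to ABP1: Euclidean distance between DHFR-PCA score profiles of the baits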;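 for Protein-protein interaction distance between Abp1 SH3-swapped baits, to BEM1-2: Euclidean distance between DHFR-PCA score profiles of the baits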;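 for Protein-protein interaction distance between Abp1 SH3-swapped baits, to BOI1: Euclidean distance between DHFR-PCA score profiles of the baits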;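 for Protein-protein interaction distance between Abp1 SH3-swapped baits, to BZZ1-1: Euclidean distance between DHFR-PCA score profiles of the baits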
Assay type: cell-based, Saccharomyces cerevisiae
Details: for Protein-protein interaction distance between Abp1 SH3-swapped baits, to ABP1: Abp1 bait with swapped SH3, distance to bait with ABP1 SH3; for Protein-protein interaction distance between Abp1 SH3-swapped baits, to ABP1 / Protein-protein interaction distance between Abp1 SH3-swapped baits, to BBC1 / Protein-protein interaction distance between Abp1 SH3-swapped baits, to BEM1-1 / Protein-protein interaction distance between Abp1 SH3-swapped baits, to BEM1-2 / Protein-protein interaction distance between Abp1 SH3-swapped baits, to BOI1 / Protein-protein interaction distance between Abp1 SH3-swapped baits, to BOI2 / Protein-protein interaction distance between Abp1 SH3-swapped baits, to BUD14 / Protein-protein interaction distance between Abp1 SH3-swapped baits, to BZZ1-1 / Protein-protein interaction distance between Abp1 SH3-swapped baits, to BZZ1-2 / Protein-protein interaction distance between Abp1 SH3-swapped baits, to CDC25 / Protein-protein interaction distance between Abp1 SH3-swapped baits, to CTTN / Protein-protein interaction distance between Abp1 SH3-swapped baits, to CYK3 / Protein-protein interaction distance between Abp1 SH3-swapped baits, to DBNL / Protein-protein interaction distance between Abp1 SH3-swapped baits, to FUS1 / Protein-protein interaction distance between Abp1 SH3-swapped baits, to HCLS1 / Protein-protein interaction distance between Abp1 SH3-swapped baits, to HOF1 / Protein-protein interaction distance between Abp1 SH3-swapped baits, to HSE1 / Protein-protein interaction distance between Abp1 SH3-swapped baits, to LSB1 / Protein-protein interaction distance between Abp1 SH3-swapped baits, to LSB3 / Protein-protein interaction distance between Abp1 SH3-swapped baits, to MYO3 / Protein-protein interaction distance between Abp1 SH3-swapped baits, to MYO5 / Protein-protein interaction distance between Abp1 SH3-swapped baits, to NBP2 / Protein-protein interaction distance between Abp1 SH3-swapped baits, to PEX13 / Protein-protein interaction distance between Abp1 SH3-swapped baits, to PIN3 / Protein-protein interaction distance between Abp1 SH3-swapped baits, to RVS167 / Protein-protein interaction distance between Abp1 SH3-swapped baits, to SDC25 / Protein-protein interaction distance between Abp1 SH3-swapped baits, to SHO1 / Protein-protein interaction distance between Abp1 SH3-swapped baits, to SLA1-1 / Protein-protein interaction distance between Abp1 SH3-swapped baits, to SLA1-2 / Protein-protein interaction distance between Abp1 SH3-swapped baits, to SLA1-3 / Protein-protein interaction distance between Abp1 SH3-swapped baits, to YSC84: sheet Fig2C; for Protein-protein interaction distance between Abp1 SH3-swapped baits, to BBC1: distance to Abp1 bait with BBC1 SH3; for Protein-protein interaction distance between Abp1 SH3-swapped baits, to BEM1-1: distance to Abp1 bait with BEM1-1 SH3; for Protein-protein interaction distance between Abp1 SH3-swapped baits, to BEM1-2: distance to Abp1 bait with BEM1-2 SH3; for Protein-protein interaction distance between Abp1 SH3-swapped baits, to BOI1: distance to Abp1 bait with BOI1 SH3; for Protein-protein interaction distance between Abp1 SH3-swapped baits, to BOI2: distance to Abp1 bait with BOI2 SH3; for Protein-protein interaction distance between Abp1 SH3-swapped baits, to BUD14: distance to Abp1 bait with BUD14 SH3; for Protein-protein interaction distance between Abp1 SH3-swapped baits, to BZZ1-1: distance to Abp1 bait with BZZ1-1 SH3; for Protein-protein interaction distance between Abp1 SH3-swapped baits, to BZZ1-2: distance to Abp1 bait with BZZ1-2 SH3; for Protein-protein interaction distance between Abp1 SH3-swapped baits, to CDC25: distance to Abp1 bait with CDC25 SH3; for Protein-protein interaction distance between Abp1 SH3-swapped baits, to CTTN: distance to Abp1 bait with CTTN SH3; for Protein-protein interaction distance between Abp1 SH3-swapped baits, to CYK3: distance to Abp1 bait with CYK3 SH3; for Protein-protein interaction distance between Abp1 SH3-swapped baits, to DBNL: distance to Abp1 bait with DBNL SH3; for Protein-protein interaction distance between Abp1 SH3-swapped baits, to FUS1: distance to Abp1 bait with FUS1 SH3; for Protein-protein interaction distance between Abp1 SH3-swapped baits, to HCLS1: distance to Abp1 bait with HCLS1 SH3; for Protein-protein interaction distance between Abp1 SH3-swapped baits, to HOF1: distance to Abp1 bait with HOF1 SH3; for Protein-protein interaction distance between Abp1 SH3-swapped baits, to HSE1: distance to Abp1 bait with HSE1 SH3; for Protein-protein interaction distance between Abp1 SH3-swapped baits, to LSB1: distance to Abp1 bait with LSB1 SH3; for Protein-protein interaction distance between Abp1 SH3-swapped baits, to LSB3: distance to Abp1 bait with LSB3 SH3; for Protein-protein interaction distance between Abp1 SH3-swapped baits, to MYO3: distance to Abp1 bait with MYO3 SH3; for Protein-protein interaction distance between Abp1 SH3-swapped baits, to MYO5: distance to Abp1 bait with MYO5 SH3; for Protein-protein interaction distance between Abp1 SH3-swapped baits, to NBP2: distance to Abp1 bait with NBP2 SH3; for Protein-protein interaction distance between Abp1 SH3-swapped baits, to PEX13: distance to Abp1 bait with PEX13 SH3; for Protein-protein interaction distance between Abp1 SH3-swapped baits, to PIN3: distance to Abp1 bait with PIN3 SH3; for Protein-protein interaction distance between Abp1 SH3-swapped baits, to RVS167: distance to Abp1 bait with RVS167 SH3; for Protein-protein interaction distance between Abp1 SH3-swapped baits, to SDC25: distance to Abp1 bait with SDC25 SH3; for Protein-protein interaction distance between Abp1 SH3-swapped baits, to SHO1: distance to Abp1 bait with SHO1 SH3; for Protein-protein interaction distance between Abp1 SH3-swapped baits, to SLA1-1: distance to Abp1 bait with SLA1-1 SH3; for Protein-protein interaction distance between Abp1 SH3-swapped baits, to SLA1-2: distance to Abp1 bait with SLA1-2 SH3; for Protein-protein interaction distance between Abp1 SH3-swapped baits, to SLA1-3: distance to Abp1 bait with SLA1-3 SH3; for Protein-protein interaction distance between Abp1 SH3-swapped baits, to YSC84: distance to Abp1 bait with YSC84 SH3; for PPIs gained by Abp1 - SH3-dependent PPIs gained by Abp1 / SH3-dependent PPIs - SH3-dependent PPIs gained by Abp1 / SH3-dependent PPIs gained by Abp1: number of PPIs, Abp1 SH3-swapped with the listed SH3, Fig2D,S2F; for PPIs gained by Abp1 - SH3-dependent PPIs gained by Abp1 / SH3-dependent PPIs - SH3-dependent PPIs gained by Abp1: difference; for SH3-dependent PPIs gained by Abp1: DHFR-PCA
How it was run: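 Yeast DHFR-PCA in which Abp1 baits, carrying their SH3 replaced by CRISPR–Cas9 with one of 27 yeast SH3s or human CTTN, HCLS1 or DBNL SH3s, were mated against 575 SH3-associated DHFR F[3] preys plus 40 negative controls. Four tests were run per PPI. Diploids were selected twice (48 h, 30 °C), then grown 4 days on PCA selection media.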

B1: PIN3 (protein, UniProt Q06449 2-215, looked up)
[PSI+] inducibility protein 3: SASLINRSLTNIRTELDFLKGSNVISNDVYDQINKSLPAKWDPANAPRNASPASLEYVEALYQFDPQQDGDLGLKPGDKVQLLEKLSPEWYKGSCNGRTGIFPANYVKPAFSGSNGPSNLPPPPQYKAQELQQIPTQNSAASSYQQQPFPPPSTNYYQQPQQQPQQAPPPQQQQQQQQHQSSHSHLKSFGSKLGNAAIFGAGASIGSDIVNNIF
  Protein-protein interaction distance between Abp1 SH3-swapped baits, to ABP1: 11.43
  Protein-protein interaction distance between Abp1 SH3-swapped baits, to BBC1: 11.25
  Protein-protein interaction distance between Abp1 SH3-swapped baits, to BEM1-1: 16.56
  Protein-protein interaction distance between Abp1 SH3-swapped baits, to BEM1-2: 33.69
  Protein-protein interaction distance between Abp1 SH3-swapped baits, to BOI1: 13.58
  Protein-protein interaction distance between Abp1 SH3-swapped baits, to BOI2: 17.21
  Protein-protein interaction distance between Abp1 SH3-swapped baits, to BUD14: 19.7
  Protein-protein interaction distance between Abp1 SH3-swapped baits, to BZZ1-1: 8.164
  Protein-protein interaction distance between Abp1 SH3-swapped baits, to BZZ1-2: 13.53
  Protein-protein interaction distance between Abp1 SH3-swapped baits, to CDC25: 28.09
  Protein-protein interaction distance between Abp1 SH3-swapped baits, to CTTN: 14.08
  Protein-protein interaction distance between Abp1 SH3-swapped baits, to CYK3: 28.76
  Protein-protein interaction distance between Abp1 SH3-swapped baits, to DBNL: 8.074
  Protein-protein interaction distance between Abp1 SH3-swapped baits, to FUS1: 21.08
  Protein-protein interaction distance between Abp1 SH3-swapped baits, to HCLS1: 8.844
  Protein-protein interaction distance between Abp1 SH3-swapped baits, to HOF1: 32.38
  Protein-protein interaction distance between Abp1 SH3-swapped baits, to HSE1: 9.808
  Protein-protein interaction distance between Abp1 SH3-swapped baits, to LSB1: 5.513
  Protein-protein interaction distance between Abp1 SH3-swapped baits, to LSB3: 5.817
  Protein-protein interaction distance between Abp1 SH3-swapped baits, to MYO3: 8.374
  Protein-protein interaction distance between Abp1 SH3-swapped baits, to MYO5: 6.67
  Protein-protein interaction distance between Abp1 SH3-swapped baits, to NBP2: 18.8
  Protein-protein interaction distance between Abp1 SH3-swapped baits, to PEX13: 5.433
  Protein-protein interaction distance between Abp1 SH3-swapped baits, to PIN3: 0.00
  Protein-protein interaction distance between Abp1 SH3-swapped baits, to RVS167: 5.294
  Protein-protein interaction distance between Abp1 SH3-swapped baits, to SDC25: 34.35
  Protein-protein interaction distance between Abp1 SH3-swapped baits, to SHO1: 9.004
  Protein-protein interaction distance between Abp1 SH3-swapped baits, to SLA1-1: 30.57
  Protein-protein interaction distance between Abp1 SH3-swapped baits, to SLA1-2: 21.49
  Protein-protein interaction distance between Abp1 SH3-swapped baits, to SLA1-3: 6.016
  Protein-protein interaction distance between Abp1 SH3-swapped baits, to YSC84: 5.862
  PPIs gained by Abp1 - SH3-dependent PPIs gained by Abp1: 29
  SH3-dependent PPIs - SH3-dependent PPIs gained by Abp1: 13
  SH3-dependent PPIs gained by Abp1: 0

B2: SHO1 (protein, UniProt P40073 1-367, looked up)
High osmolarity signaling …: MSISSKIRPTPRKPSRMATDHSFKMKKFYADPFAISSISLAIVSWVIAIGGSISSASTNESFPRFTWWGIVYQFLIICSLMLFYCFDLVDHYRIFITTSIAVAFVYNTNSATNLVYADGPKKAAASAGVILLSIINLIWILYYGGDNASPTNRWIDSFSIKGIRPSPLENSLHRARRRGNRNTTPYQNNVYNDAIRDSGYATQFDGYPQQQPSHTNYVSSTALAGFENTQPNTSEAVNLHLNTLQQRINSASNAKETNDNSNNQTNTNIGNTFDTDFSNGNTETTMGDTLGLYSDIGDDNFIYKAKALYPYDADDDDAYEISFEQNEILQVSDIEGRWWKARRANGETGIIPSNYVQLIDGPEEMHR
  Protein-protein interaction distance between Abp1 SH3-swapped baits, to ABP1: 8.989
  Protein-protein interaction distance between Abp1 SH3-swapped baits, to BBC1: 7.412
  Protein-protein interaction distance between Abp1 SH3-swapped baits, to BEM1-1: 10.91
  Protein-protein interaction distance between Abp1 SH3-swapped baits, to BEM1-2: 30.43
  Protein-protein interaction distance between Abp1 SH3-swapped baits, to BOI1: 8.152
  Protein-protein interaction distance between Abp1 SH3-swapped baits, to BOI2: 11.77
  Protein-protein interaction distance between Abp1 SH3-swapped baits, to BUD14: 14.66
  Protein-protein interaction distance between Abp1 SH3-swapped baits, to BZZ1-1: 4.878
  Protein-protein interaction distance between Abp1 SH3-swapped baits, to BZZ1-2: 7.862
  Protein-protein interaction distance between Abp1 SH3-swapped baits, to CDC25: 24.02
  Protein-protein interaction distance between Abp1 SH3-swapped baits, to CTTN: 9.013
  Protein-protein interaction distance between Abp1 SH3-swapped baits, to CYK3: 24.75
  Protein-protein interaction distance between Abp1 SH3-swapped baits, to DBNL: 4.441
  Protein-protein interaction distance between Abp1 SH3-swapped baits, to FUS1: 16.07
  Protein-protein interaction distance between Abp1 SH3-swapped baits, to HCLS1: 8.302
  Protein-protein interaction distance between Abp1 SH3-swapped baits, to HOF1: 29.05
  Protein-protein interaction distance between Abp1 SH3-swapped baits, to HSE1: 5.64
  Protein-protein interaction distance between Abp1 SH3-swapped baits, to LSB1: 11.57
  Protein-protein interaction distance between Abp1 SH3-swapped baits, to LSB3: 11.76
  Protein-protein interaction distance between Abp1 SH3-swapped baits, to MYO3: 10.66
  Protein-protein interaction distance between Abp1 SH3-swapped baits, to MYO5: 10.26
  Protein-protein interaction distance between Abp1 SH3-swapped baits, to NBP2: 13.02
  Protein-protein interaction distance between Abp1 SH3-swapped baits, to PEX13: 8.672
  Protein-protein interaction distance between Abp1 SH3-swapped baits, to PIN3: 9.004
  Protein-protein interaction distance between Abp1 SH3-swapped baits, to RVS167: 6.815
  Protein-protein interaction distance between Abp1 SH3-swapped baits, to SDC25: 31.28
  Protein-protein interaction distance between Abp1 SH3-swapped baits, to SHO1: 0.00
  Protein-protein interaction distance between Abp1 SH3-swapped baits, to SLA1-1: 26.8
  Protein-protein interaction distance between Abp1 SH3-swapped baits, to SLA1-2: 16.55
  Protein-protein interaction distance between Abp1 SH3-swapped baits, to SLA1-3: 11.51
  Protein-protein interaction distance between Abp1 SH3-swapped baits, to YSC84: 12.33
  PPIs gained by Abp1 - SH3-dependent PPIs gained by Abp1: 3
  SH3-dependent PPIs - SH3-dependent PPIs gained by Abp1: 1
  SH3-dependent PPIs gained by Abp1: 1
